Measured values published in patent publication US20210396761A1 (AICURIS, published 2021).

Columns and labels:
[1] = biological target: T1, HCMV pUL50, C-terminally fused to the HA epitope (pcDNA-UL50-HA, pHM2589) (human cytomegalovirus (HCMV) strain …, UniProt P16791 1-397); assay: coimmunoprecipitation, transiently transfected 293T cells
T1 sequence: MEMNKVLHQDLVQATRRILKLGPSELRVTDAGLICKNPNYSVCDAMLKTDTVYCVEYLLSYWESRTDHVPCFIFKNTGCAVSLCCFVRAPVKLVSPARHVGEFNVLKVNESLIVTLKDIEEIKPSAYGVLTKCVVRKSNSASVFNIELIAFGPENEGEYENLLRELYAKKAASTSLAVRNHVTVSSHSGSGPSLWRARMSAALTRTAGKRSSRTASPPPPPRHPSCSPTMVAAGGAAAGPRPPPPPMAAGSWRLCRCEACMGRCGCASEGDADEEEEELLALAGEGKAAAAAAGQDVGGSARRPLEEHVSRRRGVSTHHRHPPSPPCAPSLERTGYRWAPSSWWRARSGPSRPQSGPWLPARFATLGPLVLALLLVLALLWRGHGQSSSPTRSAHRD

[2] = biological target: T2, VZV Orf24, C-terminally fused to the HA epitope (pcDNA-Orf24-HA, pHM4695) (varicella zoster virus (VZV) strain …, UniProt P09280 1-269); assay: as above
T2 sequence: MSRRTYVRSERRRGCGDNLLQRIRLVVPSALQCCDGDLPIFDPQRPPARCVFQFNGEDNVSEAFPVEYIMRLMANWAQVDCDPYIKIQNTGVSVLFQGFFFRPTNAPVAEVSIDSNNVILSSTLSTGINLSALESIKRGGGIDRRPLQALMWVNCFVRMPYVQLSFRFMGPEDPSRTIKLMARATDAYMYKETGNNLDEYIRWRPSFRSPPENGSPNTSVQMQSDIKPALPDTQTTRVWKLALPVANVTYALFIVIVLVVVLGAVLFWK

[3] = biological target: the molecule itself; assay: analytical size exclusion chromatography (Superdex 75 10/300)
pUL53 (50-292) = biological target: T3, pUL53 (50-292) (human cytomegalovirus (HCMV) strain …, UniProt P16794 50-292); assay: analytical size exclusion chromatography, coproduced in E. coli and also mixed in vitro
T3 sequence: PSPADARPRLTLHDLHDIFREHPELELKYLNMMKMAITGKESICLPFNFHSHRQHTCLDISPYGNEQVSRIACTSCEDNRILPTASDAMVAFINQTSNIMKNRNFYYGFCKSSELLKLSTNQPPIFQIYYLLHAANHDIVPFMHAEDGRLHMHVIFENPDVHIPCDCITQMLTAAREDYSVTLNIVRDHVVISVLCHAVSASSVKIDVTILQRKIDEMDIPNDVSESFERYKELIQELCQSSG

[4] = biological target: T4, EBV BFLF2, C-terminally fused to the Flag epitope (pcDNA-BFLF2-Flag, pHM4698) (Epstein-Barr virus (EBV) strain B95-8, UniProt P0CK47 1-318); assay: coimmunoprecipitation, transiently transfected 293T cells
T4 construct: also called Flag-tagged BFLF2
T4 sequence: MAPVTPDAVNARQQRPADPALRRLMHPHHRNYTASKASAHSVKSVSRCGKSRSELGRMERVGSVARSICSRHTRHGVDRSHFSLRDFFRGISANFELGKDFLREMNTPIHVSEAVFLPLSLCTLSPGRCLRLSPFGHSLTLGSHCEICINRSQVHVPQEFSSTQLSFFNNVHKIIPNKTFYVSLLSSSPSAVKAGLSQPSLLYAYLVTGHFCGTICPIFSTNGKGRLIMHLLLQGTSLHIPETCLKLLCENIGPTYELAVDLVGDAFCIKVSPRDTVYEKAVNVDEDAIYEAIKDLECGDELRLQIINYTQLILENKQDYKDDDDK

B1: MCMV pM53, C-terminally fused to the Flag epitope (pcDNA-M53-Flag, pHM4718) (other)
chain: MFRSPEGEERDAADREEEEGGEARRRSRMMMSPRRVKRARHRPAGSGLRTPLRSPSACRCSSPSPERQWQQRRRAEKRSTTPTDPPPPPKRSAASAAAGAAAPESEYLNVKLSELHDVFQRHPDLEQKYLKIMKLPITGKESIRLPFDFKSHRQHTCLDLSPYGNDQVSRSACTTCKETTRLPTASDSMVAFINQTSNVMKHRKFYFGFRKNMELLKMAANQPQLFQIYYIVQSCVQEIVPLIYYDREMAHMQLIFEKETVHIPSQCIEQILTVAKDAYGVSLDIAHQRITLTARCLRLESSSLRIDVLMLQRKVDELEIPNETNEKFESYSLDYKDDDDK
notes: also called pM53-Flag; Flag-tagged pM53
[1]
  binding result: binds
[2]
  binding result: no binding

B2: pUL50 (1-181) (other)
chain: MEMNKVLHQDLVQATRRILKLGPSELRVTDAGLICKNPNYSVCDAMLKTDTVYCVEYLLSYWESRTDHVPCFIFKNTGCAVSLCCFVRAPVKLVSPARHVGEFNVLKVNESLIVTLKDIEEIKPSAYGVLTKCVVRKSNSASVFNIELIAFGPENEGEYENLLRELYAKKAASTSLAVRNH
[3]
  binding result: no binding
pUL53 (50-292)
  binding result: binds

B3: MCMV pM50, C-terminally fused to the HA epitope (pcDNA-M50-HA, pHM4717) (other)
chain: MEIDKNVGADLISNTRRILRLDENELRITDTALICKNPNYSLCDAMLTTDIVYPVEYLLSYWECRSGRTACFVFKNTGCRVSLSCYIGFPERLKDLKRVCDFNFLSVNEALVVTLADIERIKPCDKGVLTNCVVRKSNSGMSYNIEVVAFGPDNEAEYQALLRDIYARRMTSVPTDCGSLICRRARCLAAAPPRRPPPPPPPGQRWGSLRKHGPVLTRRYAGGGGAAKNQPAAASPTSTSTSSPAAPSRDQDQTQRPPPAGDTNVTAAETTYSERTISFLTRHANAIHCALILAAAIALVLLWLLYWHAARSAGHP
notes: also called pM50-HA; HA-tagged pM50
[4]
  binding result: no binding
